We go through 21 molecules from publication PMC7352350, “Molecular Interactions Stabilizing the Promatrix Metalloprotease-9·Serglycin Heteromer” (International Journal of Molecular Sciences, 2020).

Conditions in all cases: both partners purified
The target in assay [1] is T1, proMMP-9 purified from THP-1 cells (human (endogenous in THP-1), UniProt P14780 20-707).
T1 construct: matrix metalloprotease-9 proenzyme, human; pre domain cleaved off, the mature proenzyme is 20-707; the preparation holds a small amount of TIMP-1; monomer and reduction-sensitive homomultimer; also called pMMP-9; promatrix metalloprotease-9; source: purified from conditioned medium of PMA-stimulated THP-1 cells (Q-Sepharose pass-through, gelatin-Sepharose)
Put plainly: peptide or protein array; 20-mer walk of the SG core protein on cellulose, two-residue shift; 8.8 ul of 11.2 ug/mL proMMP-9 in 10 mL blocking buffer, 1-4 h, room temperature; antibody against MMP-9.

The target of assay [2] is T2, recombinant full-length proMMP-9 (human, UniProt P14780 20-707).
T2 construct: matrix metalloprotease-9 proenzyme, human, full-length; pre domain cleaved off, the mature proenzyme is 20-707; also called rpMMP-9; source: Sf9, baculovirus, purified (gelatin-Sepharose)
Described as above.

Assay [3] has as its target T3, recombinant proMMP-9 lacking the HPX domain (human, UniProt P14780 20-515).
T3 construct: MMP-9 proenzyme, human; stop codon behind the codon for A515; the mature proenzyme starts at 20; also called rpMMP-9ΔHPX; proMMP-9ΔHPX; source: Sf9, baculovirus, purified (gelatin-Sepharose)
The assay is described as above.

The target of assay [4] is T4, recombinant human His-tagged serglycin (human, UniProt P10124 28-158).
T4 construct: serglycin core protein, human, the tag stands instead of the signal peptide; no GAG chains; numbers count on: the mature protein (1-131); also called Ht-SG; SG core protein; source: bought: ProSpec (produced in Escherichia coli)
T4 sequence (looked up): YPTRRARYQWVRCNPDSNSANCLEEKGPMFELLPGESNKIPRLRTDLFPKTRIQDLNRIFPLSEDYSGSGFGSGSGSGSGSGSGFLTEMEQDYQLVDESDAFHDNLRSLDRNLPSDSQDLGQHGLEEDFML
Put plainly: peptide or protein array; 20-mer walks of the MMP-9 FnII module and HPX domain on cellulose, two-residue shift; 10 uL of 1 ng/uL Ht-SG in 10 mL blocking buffer, 1-4 h, room temperature; antibodies against SG.

Assay [5] has as its target T1, proMMP-9 purified from THP-1 cells. Put plainly: peptide or protein array; 20-mer walk of the SG core protein on cellulose, two-residue shift; 8.8 ul of 11.2 ug/mL proMMP-9 in 10 mL blocking buffer, 1-4 h, room temperature; antibody against MMP-9. This is another data set of the same source.

T3 sequence (P14780 20-515): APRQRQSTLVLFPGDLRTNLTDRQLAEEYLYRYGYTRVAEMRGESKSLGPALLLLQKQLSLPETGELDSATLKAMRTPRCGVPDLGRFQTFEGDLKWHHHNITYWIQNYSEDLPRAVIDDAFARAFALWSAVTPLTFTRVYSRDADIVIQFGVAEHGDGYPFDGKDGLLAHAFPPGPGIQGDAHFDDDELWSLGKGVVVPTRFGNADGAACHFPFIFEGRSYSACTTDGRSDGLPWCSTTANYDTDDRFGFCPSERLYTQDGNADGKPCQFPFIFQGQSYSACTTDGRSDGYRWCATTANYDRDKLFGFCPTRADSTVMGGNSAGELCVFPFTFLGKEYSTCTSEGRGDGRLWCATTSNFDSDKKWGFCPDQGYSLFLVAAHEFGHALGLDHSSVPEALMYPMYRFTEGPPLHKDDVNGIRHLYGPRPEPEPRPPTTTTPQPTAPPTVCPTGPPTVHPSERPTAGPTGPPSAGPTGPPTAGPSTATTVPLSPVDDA
T1 sequence (P14780 20-707): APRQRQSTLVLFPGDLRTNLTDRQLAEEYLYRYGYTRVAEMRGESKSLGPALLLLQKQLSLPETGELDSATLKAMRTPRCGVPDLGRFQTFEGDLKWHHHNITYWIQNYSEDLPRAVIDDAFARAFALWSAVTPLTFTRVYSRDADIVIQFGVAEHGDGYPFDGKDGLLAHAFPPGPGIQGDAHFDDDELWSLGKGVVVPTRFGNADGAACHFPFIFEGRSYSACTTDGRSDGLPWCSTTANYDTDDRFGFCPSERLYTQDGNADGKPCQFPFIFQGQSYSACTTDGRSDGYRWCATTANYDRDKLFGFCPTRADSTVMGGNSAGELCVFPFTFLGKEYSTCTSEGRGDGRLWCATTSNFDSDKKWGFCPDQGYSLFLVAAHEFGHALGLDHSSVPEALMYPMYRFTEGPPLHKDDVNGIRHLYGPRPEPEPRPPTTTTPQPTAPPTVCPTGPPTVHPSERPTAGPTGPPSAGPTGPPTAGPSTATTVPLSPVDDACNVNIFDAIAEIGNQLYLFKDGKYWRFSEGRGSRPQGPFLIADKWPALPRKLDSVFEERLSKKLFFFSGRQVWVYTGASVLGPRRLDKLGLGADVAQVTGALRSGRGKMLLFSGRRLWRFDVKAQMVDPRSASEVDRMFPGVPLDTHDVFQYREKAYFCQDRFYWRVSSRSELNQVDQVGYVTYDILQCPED

B1: SG peptide 22 (peptide, UniProt P10124 70-89, looked up)
peptide: LRTDLFPKTRIQDLNRIFPL
notes: serglycin core protein, spot 22 of the 20-mer walk with two-residue shift; numbers count on: the mature protein (1-131); source: synthetic peptide on a cellulose membrane
As for B1, the binding result in assay [1], in assay [2] and in assay [3] was “binds” in each case.

B2: HPX peptide 37 (peptide, UniProt P14780 593-612, looked up)
peptide: ASVLGPRRLDKLGLGADVAQ
notes: MMP-9 HPX domain (F521-D707), spot 37 of the 20-mer walk with two-residue shift; source: synthetic peptide on a cellulose membrane
In the case of B2, the binding result in assay [4] is on record as “binds”.

B3: SG peptide 21 (peptide, UniProt P10124 68-87, looked up)
peptide: PRLRTDLFPKTRIQDLNRIF
notes: serglycin core protein, spot 21 of the 20-mer walk with two-residue shift; numbers count on: the mature protein (1-131); source: synthetic peptide on a cellulose membrane
With B3, the binding result in assay [1] and in assay [2] was “binds” throughout.

B4: FnII peptide 14 (peptide, UniProt P14780 251-270, looked up)
peptide: DGLPWCSTTANYDTDDRFGF
notes: MMP-9 FnII module (A225-D390), spot 14 of the 20-mer walk with two-residue shift; source: synthetic peptide on a cellulose membrane
For B4, in assay [4], the binding result is “binds”.

B5: FnII peptide 22 (peptide, UniProt P14780 267-286, looked up)
peptide: RFGFCPSERLYTQDGNADGK
notes: MMP-9 FnII module (A225-D390), spot 22 of the 20-mer walk with two-residue shift; source: synthetic peptide on a cellulose membrane
For the molecule B5, in assay [4], the binding result is recorded as “binds”.

B6: HPX peptide 38 (peptide, UniProt P14780 595-614, looked up)
peptide: VLGPRRLDKLGLGADVAQVT
notes: MMP-9 HPX domain (F521-D707), spot 38 of the 20-mer walk with two-residue shift; source: synthetic peptide on a cellulose membrane
Regarding B6, the binding result in assay [4] is given as “binds”.

B7: FnII peptide 21 (peptide, UniProt P14780 265-284, looked up)
peptide: DDRFGFCPSERLYTQDGNAD
notes: MMP-9 FnII module (A225-D390), spot 21 of the 20-mer walk with two-residue shift; source: synthetic peptide on a cellulose membrane
In the case of B7, the binding result in assay [4] is “binds”.

B8: HPX peptide 41 (peptide, UniProt P14780 601-620, looked up)
peptide: LDKLGLGADVAQVTGALRSG
notes: MMP-9 HPX domain (F521-D707), spot 41 of the 20-mer walk with two-residue shift; source: synthetic peptide on a cellulose membrane
For the molecule B8, the binding result in assay [4] is “binds”.

B9: SG peptide 25 (peptide, UniProt P10124 76-95, looked up)
peptide: PKTRIQDLNRIFPLSEDYSG
notes: serglycin core protein, spot 25 of the 20-mer walk with two-residue shift; numbers count on: the mature protein (1-131); source: synthetic peptide on a cellulose membrane
For B9, the binding result in assay [1], in assay [2] and in assay [3] was “binds” throughout.

B10: SG peptide 23 (peptide, UniProt P10124 72-91, looked up)
peptide: TDLFPKTRIQDLNRIFPLSE
notes: serglycin core protein, spot 23 of the 20-mer walk with two-residue shift; numbers count on: the mature protein (1-131); source: synthetic peptide on a cellulose membrane
Take B10: the binding result in assay [1], in assay [2] and in assay [3] was “binds” each time.

B11: HPX peptide 18 (peptide, UniProt P14780 555-574, looked up)
peptide: LIADKWPALPRKLDSVFEER
notes: MMP-9 HPX domain (F521-D707), spot 18 of the 20-mer walk with two-residue shift; source: synthetic peptide on a cellulose membrane
Consider B11, for which, in assay [4], the binding result is “binds”.

B12: HPX peptide 71 (peptide, UniProt P14780 661-680, looked up)
peptide: THDVFQYREKAYFCQDRFYW
notes: MMP-9 HPX domain (F521-D707), spot 71 of the 20-mer walk with two-residue shift; source: synthetic peptide on a cellulose membrane
As to B12, in assay [4], the binding result is on record as “binds”.

B13: HPX peptide 70 (peptide, UniProt P14780 659-678, looked up)
peptide: LDTHDVFQYREKAYFCQDRF
notes: MMP-9 HPX domain (F521-D707), spot 70 of the 20-mer walk with two-residue shift; source: synthetic peptide on a cellulose membrane
With B13, in assay [4], the binding result is given as “binds”.

B14: HPX peptide 11 (peptide, UniProt P14780 541-560, looked up)
peptide: RFSEGRGSRPQGPFLIADKW
notes: MMP-9 HPX domain (F521-D707), spot 11 of the 20-mer walk with two-residue shift; source: synthetic peptide on a cellulose membrane
Regarding B14, the binding result in assay [4] was “binds”.

B15: SG peptide 51 (peptide, UniProt P10124 128-147, looked up)
peptide: AFHDNLRSLDRNLPSDSQDL
notes: serglycin core protein, spot 51 of the 20-mer walk with two-residue shift; numbers count on: the mature protein (1-131); source: synthetic peptide on a cellulose membrane
Take B15: in assay [5], the binding result is “binds”.

B16: FnII peptide 20 (peptide, UniProt P14780 263-282, looked up)
peptide: DTDDRFGFCPSERLYTQDGN
notes: MMP-9 FnII module (A225-D390), spot 20 of the 20-mer walk with two-residue shift; source: synthetic peptide on a cellulose membrane
For B16, in assay [4], the binding result was “binds”.

B17: SG peptide 6 (peptide, UniProt P10124 38-57, looked up)
peptide: VRCNPDSNSANCLEEKGPMF
notes: serglycin core protein, spot 6 of the 20-mer walk with two-residue shift; numbers count on: the mature protein (1-131); source: synthetic peptide on a cellulose membrane
As for B17, the binding result in assay [1], in assay [2] and in assay [3] was “binds” in each case.

B18: HPX peptide 84 (peptide, UniProt P14780 687-706, looked up)
peptide: ELNQVDQVGYVTYDILQCPE
notes: MMP-9 HPX domain (F521-D707), spot 84 of the 20-mer walk with two-residue shift; source: synthetic peptide on a cellulose membrane
With B18, in assay [4], the binding result is on record as “binds”.

B19: FnII peptide 35 (peptide, UniProt P14780 293-312, looked up)
peptide: IFQGQSYSACTTDGRSDGYR
notes: MMP-9 FnII module (A225-D390), spot 35 of the 20-mer walk with two-residue shift; source: synthetic peptide on a cellulose membrane
For the molecule B19, the binding result in assay [4] is on record as “binds”.

B20: FnII peptide 16 (peptide, UniProt P14780 255-274, looked up)
peptide: WCSTTANYDTDDRFGFCPSE
notes: MMP-9 FnII module (A225-D390), spot 16 of the 20-mer walk with two-residue shift; source: synthetic peptide on a cellulose membrane
On to B20, for which the binding result in assay [4] is reported as “binds”.

B21: SG peptide 14 (peptide, UniProt P10124 54-73, looked up)
peptide: GPMFELLPGESNKIPRLRTD
notes: serglycin core protein, spot 14 of the 20-mer walk with two-residue shift; numbers count on: the mature protein (1-131); source: synthetic peptide on a cellulose membrane
Consider B21, for which the binding result in assay [1], in assay [2] and in assay [3] was “binds” each time.
